Laboratory results taken from PMC10397247.
Values belong to the binder of their own block, whether it stands above or below them.

Columns and labels:
[1] = molecular target: T1, 4H2991-AA; experiment: two-hybrid library CCmax; settings: mean of both orientations;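 note: natural log of median RNA to DNA barcode read ratio; higher means stronger binding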
T1 chain: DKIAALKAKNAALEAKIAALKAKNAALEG

[2] = molecular target: T2, 4H146-AA; experiment: two-hybrid library CCmax;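 note: natural log of median RNA to DNA barcode read ratio; higher means stronger binding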
T2 chain: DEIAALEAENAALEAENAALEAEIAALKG

[3] = molecular target: T3, 4H497-AA; experiment: two-hybrid library CCmax; settings: mean of both orientations;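 note: natural log of median RNA to DNA barcode read ratio; higher means stronger binding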
T3 chain: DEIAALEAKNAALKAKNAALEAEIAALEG

[4] = molecular target: T4, 4H189-AA; experiment: two-hybrid library CCmax;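 note: natural log of median RNA to DNA barcode read ratio; higher means stronger binding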
T4 chain: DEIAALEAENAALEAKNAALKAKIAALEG

[5] = molecular target: T5, 4H391-AA; experiment: two-hybrid library CCmax; settings: mean of both orientations;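 note: natural log of median RNA to DNA barcode read ratio; higher means stronger binding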
T5 chain: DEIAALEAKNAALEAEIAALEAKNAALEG

[6] = molecular target: T6, 4H1348-AA; experiment: two-hybrid library CCmax;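 note: natural log of median RNA to DNA barcode read ratio; higher means stronger binding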
T6 chain: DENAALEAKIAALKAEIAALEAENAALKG

[7] = molecular target: T7, 4H2283-AA; experiment: two-hybrid library CCmax; settings: mean of both orientations
T7 chain: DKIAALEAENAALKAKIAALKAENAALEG

[8] = molecular target: T8, 4H3939-AA; experiment: two-hybrid library CCmax; settings: mean of both orientations
T8 chain: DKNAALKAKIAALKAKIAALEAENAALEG

[9] = molecular target: T9, 4H3628-AA; experiment: two-hybrid library CCmax; settings: mean of both orientations
T9 chain: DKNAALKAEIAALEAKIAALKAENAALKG

[10] = molecular target: T10, 4H1391-AA; experiment: two-hybrid library CCmax; settings: mean of both orientations
T10 chain: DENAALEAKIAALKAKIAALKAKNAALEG

[11] = molecular target: T11, 4H3121-AA; experiment: two-hybrid library CCmax; settings: mean of both orientations
T11 chain: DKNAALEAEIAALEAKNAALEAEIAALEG

[12] = molecular target: T12, 4H1854-AA; experiment: two-hybrid library CCmax; settings: mean of both orientations
T12 chain: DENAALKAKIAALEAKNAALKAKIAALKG

[13] = molecular target: T13, 4H3591-AA; experiment: two-hybrid library CCmax; settings: mean of both orientations
T13 chain: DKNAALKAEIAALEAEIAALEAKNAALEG

[14] = molecular target: T14, 4H971-AA; experiment: two-hybrid library CCmax
T14 chain: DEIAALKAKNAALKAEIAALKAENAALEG

[15] = molecular target: T15, 4H428-AA; experiment: two-hybrid library CCmax; settings: mean of both orientations
T15 chain: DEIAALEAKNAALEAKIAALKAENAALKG

[16] = molecular target: T16, 4H3920-AA; experiment: two-hybrid library CCmax; settings: mean of both orientations
T16 chain: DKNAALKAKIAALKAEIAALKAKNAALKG

[17] = molecular target: T17, 4H675-AA; experiment: two-hybrid library CCmax; settings: mean of both orientations
T17 chain: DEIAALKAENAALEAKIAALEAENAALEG

[18] = molecular target: T18, 4H3066-AA; experiment: two-hybrid library CCmax; settings: mean of both orientations
T18 chain: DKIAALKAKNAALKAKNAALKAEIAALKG

[19] = molecular target: T19, 4H3029-AA; experiment: two-hybrid library CCmax; settings: mean of both orientations
T19 chain: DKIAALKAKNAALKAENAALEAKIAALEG

[20] = molecular target: T20, 4H3709-AA; experiment: two-hybrid library CCmax; settings: mean of both orientations
T20 chain: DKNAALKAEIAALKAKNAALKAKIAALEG

[21] = molecular target: T21, 4H3417-AA; experiment: two-hybrid library CCmax; settings: mean of both orientations
T21 chain: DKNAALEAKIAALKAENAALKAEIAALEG

[22] = molecular target: T22, 4H2948-AA; experiment: two-hybrid library CCmax; settings: mean of both orientations
T22 chain: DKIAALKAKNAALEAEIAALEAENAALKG

[23] = molecular target: T23, 4H2248-AA; experiment: two-hybrid library CCmax; settings: mean of both orientations
T23 chain: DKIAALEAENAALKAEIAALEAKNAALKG

[24] = molecular target: T24, 4H656-AA; experiment: two-hybrid library CCmax; settings: mean of both orientations
T24 chain: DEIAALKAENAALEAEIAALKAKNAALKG

[25] = molecular target: T25, 4H2713-AA; experiment: two-hybrid library CCmax; settings: mean of both orientations
T25 chain: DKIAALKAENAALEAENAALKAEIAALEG

[26] = molecular target: T26, 4H3446-AA; experiment: two-hybrid library CCmax; settings: mean of both orientations
T26 chain: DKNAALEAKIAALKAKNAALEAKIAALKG

[27] = molecular target: T27, 4H1809-AA; experiment: two-hybrid library CCmax; settings: mean of both orientations
T27 chain: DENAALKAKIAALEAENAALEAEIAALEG

[28] = molecular target: T28, 4H2742-AA; experiment: two-hybrid library CCmax; settings: mean of both orientations
T28 chain: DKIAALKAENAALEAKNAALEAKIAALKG

[29] = molecular target: T29, 4H478-AA; experiment: two-hybrid library CCmax; settings: mean of both orientations
T29 chain: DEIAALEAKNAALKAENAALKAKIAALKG

[30] = molecular target: T30, 4H3666-AA; experiment: two-hybrid library CCmax; settings: mean of both orientations
T30 chain: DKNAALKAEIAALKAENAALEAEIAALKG

[31] = molecular target: T31, 4H3102-AA; experiment: two-hybrid library CCmax; settings: mean of both orientations
T31 chain: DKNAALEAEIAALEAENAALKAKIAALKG

[32] = molecular target: T32, 4H3961-bA; experiment: two-hybrid library CCNG1
T32 chain: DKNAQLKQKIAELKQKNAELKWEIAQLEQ

[33] = molecular target: T33, 4H3907-bA; experiment: two-hybrid library CCNG1
T33 chain: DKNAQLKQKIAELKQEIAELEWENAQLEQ

[34] = molecular target: T34, 4H470-bA; experiment: two-hybrid library CCNG1
T34 chain: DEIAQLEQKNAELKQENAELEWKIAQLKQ

[35] = molecular target: T35, 4H363-bA; experiment: two-hybrid library CCNG1
T35 chain: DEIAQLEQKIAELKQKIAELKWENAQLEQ

[36] = molecular target: T36, 4H344-bA; experiment: two-hybrid library CCNG1
T36 chain: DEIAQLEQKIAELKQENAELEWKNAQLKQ

- interaction score [1]: -1.75
- interaction score [2]: -2.73
- interaction score [3]: -2.02
- interaction score [4]: -1.2
- interaction score [5]: -1.94
- interaction score [6]: 1.56
- interaction score [7]: -1.14
- interaction score [8]: 0.262
- interaction score [9]: 2.05
- interaction score [10]: -0.755
- interaction score [11]: -1.43
- interaction score [12]: -1.01
- interaction score [13]: 0.665
- interaction score [14]: -1.78
- interaction score [15]: -0.542
- interaction score [16]: 1.37
- interaction score [17]: -1.36
- interaction score [18]: -2.16
- interaction score [19]: -1.57
- interaction score [20]: -1.57
- interaction score [21]: -1.13
- interaction score [22]: -1.13
- interaction score [23]: -1.37
- interaction score [24]: -0.833
- interaction score [25]: -1.2
- interaction score [26]: -1.25
- interaction score [27]: -1.86
- interaction score [28]: -1.31
- interaction score [29]: 0.507
- interaction score [30]: -1.46
- interaction score [31]: -1.34
Binder: DENAALEAKIAALKAEIAALEAENAALKG [4H1348-AA]

- interaction score [32]: 1.48
- interaction score [33]: 0.155
- interaction score [34]: 0.691
- interaction score [35]: -0.443
- interaction score [36]: -0.268
Binder: DEIAQLEQKIAELKQENAELEWKNAQLKQ [4H344-bA]
